Assay results as given in patent US20070192883A1.

Tests used:
[1] = biological target: TAT-028 protein on the surface of human tumor cell lines (NCI-H460, HEK293, HepG2) (human) (UniProt P80723); assay: flow cytometry on NCI-H460 cells; secondary antibody only, background control
[2] = biological target: TAT-028 protein on the surface of human tumor cell lines (NCI-H460, HEK293, HepG2) (human) (UniProt P80723); assay: flow cytometry on HEK293 cells; secondary antibody only, background control
[3] = biological target: TAT-028 protein on the surface of human tumor cell lines (NCI-H460, HEK293, HepG2) (human) (UniProt P80723); assay: flow cytometry on HepG2 cells; secondary antibody only, background control

Sequence of UniProt P80723 (P80723 2-227 limits assumed): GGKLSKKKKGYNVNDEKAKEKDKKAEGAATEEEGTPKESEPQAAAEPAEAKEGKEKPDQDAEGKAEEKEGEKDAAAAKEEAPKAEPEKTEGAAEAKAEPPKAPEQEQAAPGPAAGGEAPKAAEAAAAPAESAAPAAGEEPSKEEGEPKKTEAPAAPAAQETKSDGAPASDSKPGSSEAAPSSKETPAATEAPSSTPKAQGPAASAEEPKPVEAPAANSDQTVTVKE

geometric mean fluorescence (geometric mean fluorescence units) [1]: 37
geometric mean fluorescence (geometric mean fluorescence units) [2]: 124
geometric mean fluorescence (geometric mean fluorescence units) [3]: 178
Substance: PE-conjugated anti-mouse IgG (antibody)
